Substrate: Nc1ncnc2c1ncn2[C@@H]1O[C@H](COP(=O)(O)OP(=O)(O)OP(=O)(O)O)[C@@H](O)[C@H]1O
Test: purified protein
Conditions: M13 ssDNA effector; ATP 0-4 mM

B1: DDX41 (Homo sapiens) (protein)
chain: MEESEPERKRARTDEVPAGGSRSEAEDEDDEDYVPYVPLRQRRQLLLQKLLQRRRKGAAEEEQQDSGSEPRGDEDDIPLGPQSNVSLLDQHQHLKEKAEARKESAKEKQLKEEEKILESVAEGRALMSVKEMAKGITYDDPIKTSWTPPRYVLSMSEERHERVRKKYHILVEGDGIPPPIKSFKEMKFPAAILRGLKKKGIHHPTPIQIQGIPTILSGRDMIGIAFTGSGKTLVFTLPVIMFCLEQEKRLPFSKREGPYGLIICPSRELARQTHGILEYYCRLLQEDSSPLLRCALCIGGMSVKEQMETIRHGVHMMVATPGRLMDLLQKKMVSLDICRYLALDEADRMIDMGFEGDIRTIFSYFKGQRQTLLFSATMPKKIQNFAKSALVKPVTINVGRAGAASLDVIQEVEYVKEEAKMVYLLECLQKTPPPVLIFAEKKADVDAIHEYLLLKGVEAVAIHGGKDQEERTKAIEAFREGKKDVLVATDVASKGLDFPAIQHVINYDMPEEIENYVHRIGRTGRSGNTGIATTFINKACDESVLMDLKALLLEAKQKVPPVLQVLHCGDESMLDIGGERGCAFCGGLGHRITDCPKLEAMQTKQVSNIGRKDYLAHSSMDF
Km: 200 µM | kcat: 953.6 ± 45.5 s⁻¹

From publication PMC9205463
